Blank lines part the entries; values can stand above or below the binder they belong to.
Molecular target: T1, murine GPC3-his protein (Sino Biological, Cat. No. 50989-M08B) (murine, UniProt Q8CFZ4 25-558)
T1 construct: Bought protein; also called murine GPC3 protein
Assay: ELISA, coated murine GPC3-His;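 note: antigen coated on plates at 1 µg/mL, test antibody bound for 2 h at 37 °C, detected with HRP-conjugated secondary antibody and TMB substrate after acid stop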
Protocol: The specific method is described as follows: The antigen protein was diluted with PBS to a final concentration of 1 μg/mL, and the diluent was added to a 96-well ELISA plate at 50 μL/well. The plate was sealed with a plastic film and incubated at 4° C. overnight, washed twice with PBS the next day, and a blocking solution [PBS+2% (w/w) BSA] was added for blocking at room temperature for 2 h. […] After incubation at 37° C. for 2 h, the plate was washed 3 times with PBS. A horseradish peroxidase (HRP)-labeled secondary antibody (purchased from Merck, Cat. No. AP113P) was added for incubation at 37° C. for 1 h, and the plate was washed 5 times with PBS. A TMB substrate was added at 50 μL/well for incubation at room temperature for 10 min, then a stop solution (1.0M HCl) was added at 50 μL/well. An ELISA plate reader (Multimode Plate Reader, EnSight, purchased from Perkin Elmer) was used to read OD_{450 nm} values, with results as shown in Table 4 to Table 6, FIG. 1A, FIG. 1B, and FIG. 1C.

T1 sequence (Q8CFZ4 25-558 limits assumed): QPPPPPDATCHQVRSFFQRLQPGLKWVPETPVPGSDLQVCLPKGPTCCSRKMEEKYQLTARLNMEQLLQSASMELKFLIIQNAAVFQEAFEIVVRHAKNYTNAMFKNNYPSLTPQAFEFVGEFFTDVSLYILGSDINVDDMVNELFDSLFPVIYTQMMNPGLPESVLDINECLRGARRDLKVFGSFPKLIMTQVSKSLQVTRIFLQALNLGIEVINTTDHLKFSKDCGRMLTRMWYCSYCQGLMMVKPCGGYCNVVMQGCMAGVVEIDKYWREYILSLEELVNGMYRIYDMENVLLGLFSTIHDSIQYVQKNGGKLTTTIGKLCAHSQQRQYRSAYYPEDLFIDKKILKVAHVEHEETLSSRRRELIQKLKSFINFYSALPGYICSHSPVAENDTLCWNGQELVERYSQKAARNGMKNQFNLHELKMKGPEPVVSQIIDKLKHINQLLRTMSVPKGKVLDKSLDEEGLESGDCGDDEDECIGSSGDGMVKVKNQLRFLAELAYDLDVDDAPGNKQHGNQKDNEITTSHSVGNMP

B1: F1.3.9 human-murine chimeric antibody (antibody, human IgG1, kappa, V domains shown)
VH: QVQLQQPGTELVKPGASVKLSCKASGYTFTSYWIHWVKQRPGQGLEWIGNINPPNAGTNYNEKFKSKATLTVDKSSSTAYMQLSSLTSEDSAVYYCARGRWLLHDYWGQGTTLTVSS
VL: DIQMTQSPASLSISVGETVTITCRASENIYSNLAWYQQKQGKSPQLLVYGTKNLAEGVPSRFSGSGSGTQYSLKINSLQSEDFGNYYCQHFWGTPYTFGGGTKLEILR
OD450 at 0.0001 nM antibody: 0.05 OD450 nm | OD450 at 0.001 nM antibody: 0.04 OD450 nm | OD450 at 0.01 nM antibody: 0.04 OD450 nm | OD450 at 0.1 nM antibody: 0.05 OD450 nm | OD450 at 1 nM antibody: 0.18 OD450 nm | OD450 at 10 nM antibody: 0.18 OD450 nm | OD450 at 100 nM antibody: 0.37 OD450 nm

B3: F1.41.17 human-murine chimeric antibody (antibody, human IgG1, kappa, V domains shown)
VH: EVQLVESGGDSVKPGGSLKLSCAASGFTFSSYGMSWVRQTPDKRLEWVATINSGGSYTYYQDSVKGRFTISRDNAKNTLYLQMSSLKSEDTAIYYCVRHHYGSSYDYFDYWGQGTTLTVSS
VL: DIVMTQAAPSVPVMPGESVSISCRSSKSLLHSNGNTHLYWFLQRPGQSPQLLIYRMSNLASGVPDRFSGSGSGTAFTLRISRVEAEDVGVYYCMQHLEYPLTFGAGTKLELKR
OD450 at 0.0001 nM antibody: 0.06 OD450 nm | OD450 at 0.001 nM antibody: 0.05 OD450 nm | OD450 at 0.01 nM antibody: 0.05 OD450 nm | OD450 at 0.1 nM antibody: 0.06 OD450 nm | OD450 at 1 nM antibody: 0.07 OD450 nm | OD450 at 10 nM antibody: 0.08 OD450 nm | OD450 at 100 nM antibody: 0.11 OD450 nm

B4: F1.92.17 human-murine chimeric antibody (antibody, human IgG1, kappa, V domains shown)
VH: EVQLQQSGPELVKPGASVKMSCKASGYTFTDYNMHWVRQSHGKSLEWIGYINPNNGDTIYNQNFKGKATLTVNKSSSTAYMELRSLTSEDSAVYYCSRTITYYYSMDYWGPGTSVTVSS
VL: QIVLTQSPALMSASPGEKVTMTCSASSSVSYMYWYQQKPRSSPKPWIYLTSNLASGVPARFSGSGSGTSYSLTISSMEAEDAATYYCQQWSSNPLTFGAGTKLELKR
OD450 at 0.0001 nM antibody: 0.05 OD450 nm | OD450 at 0.001 nM antibody: 0.05 OD450 nm | OD450 at 0.01 nM antibody: 0.05 OD450 nm | OD450 at 0.1 nM antibody: 0.06 OD450 nm | OD450 at 1 nM antibody: 0.11 OD450 nm | OD450 at 10 nM antibody: 0.22 OD450 nm | OD450 at 100 nM antibody: 0.13 OD450 nm

B5: F1.42.8 human-murine chimeric antibody (antibody, human IgG1, kappa, V domains shown)
VH: HVQLQQPGAELVKPGASVKLSCKASGYTFTSYWMHWVRQRPGQGLEWIEMIHPNSGSTNYNEKFKSKATLTVDKSSSTAYMQLSSLTSEDSAVYYCARGNYNSSLYAMDYWGQGTSVTVSS
VL: DIQMTQTTSSLSASLGDRVTISCSASQGISNYLNWYQQKPDGTVKLLIYYASNLHSGVPSRFSGSGSGTAYSLTISNLEPEDIATYYCQQYSILPYTFGGGTKLEIKR
OD450 at 0.0001 nM antibody: 0.05 OD450 nm | OD450 at 0.001 nM antibody: 0.09 OD450 nm | OD450 at 0.01 nM antibody: 0.37 OD450 nm | OD450 at 0.1 nM antibody: 1.7 OD450 nm | OD450 at 1 nM antibody: 2.51 OD450 nm | OD450 at 10 nM antibody: 2.6 OD450 nm | OD450 at 100 nM antibody: 2.75 OD450 nm

B7: F1.83.6 human-murine chimeric antibody (antibody, human IgG1, kappa, V domains shown)
VH: QVQLQQSGPELVKPGASVKISCKASGYAFSSSWMNWVKQRPGKGLEWIGRIYPGDGDTNYNGRFKGKATLTVDKSSSTAYMQLSSLTSEDSAVYFCARGGVFTMALDHWGQGTTLTVSS
VL: DIQMTQSPSSLSASLGGKVTITCKASQDINKYIAWYQHKPGKGPRLLIHYTSTLQPGIPSRFSGSGSGRDYSFSISNLEPEDIATYYCLQYDNLFTFGGGTKLEIKR
OD450 at 0.0001 nM antibody: 0.05 OD450 nm | OD450 at 0.001 nM antibody: 0.05 OD450 nm | OD450 at 0.01 nM antibody: 0.06 OD450 nm | OD450 at 0.1 nM antibody: 0.12 OD450 nm | OD450 at 1 nM antibody: 0.14 OD450 nm | OD450 at 10 nM antibody: 0.24 OD450 nm | OD450 at 100 nM antibody: 0.16 OD450 nm

The remaining lines, values ahead:

OD450 at 0.0001 nM antibody: 0.05 OD450 nm | OD450 at 0.001 nM antibody: 0.05 OD450 nm | OD450 at 0.01 nM antibody: 0.05 OD450 nm | OD450 at 0.1 nM antibody: 0.05 OD450 nm | OD450 at 1 nM antibody: 0.05 OD450 nm | OD450 at 10 nM antibody: 0.06 OD450 nm | OD450 at 100 nM antibody: 0.07 OD450 nm
B2: F1.118.4 human-murine chimeric antibody (antibody, human IgG1, kappa, V domains shown)
VH: QVQLQQSGAELAKPGASVKLSCKASGYSFTSYWIHWVKQRPGQGLEWIGYINPSSGYTKYNQKFKDKATLTADKSSSTAYMQLSSLTYEDSAVYYCARFGSSSFYFDYWGQGTTLTVSS
VL: DIVLTQSPASLAVSLGQRATISCRASQSVSSSSYSYMHWYQQKPGQPPKLLIKYASNLDSGVPARFSGSGSGTDFTLNIHPVEEEDTATYYCQHSWEIPAFGGGTKLEIKR

OD450 at 0.0001 nM antibody: 0.05 OD450 nm | OD450 at 0.001 nM antibody: 0.05 OD450 nm | OD450 at 0.01 nM antibody: 0.05 OD450 nm | OD450 at 0.1 nM antibody: 0.12 OD450 nm | OD450 at 1 nM antibody: 0.32 OD450 nm | OD450 at 10 nM antibody: 0.53 OD450 nm | OD450 at 100 nM antibody: 0.3 OD450 nm
B6: F1.110.24 human-murine chimeric antibody (antibody, human IgG1, kappa, V domains shown)
VH: EVKLVESGGGLVQPGGSLKLSCAASGFTFSDFYMYWVRQTPEKRLEWVAFISNGGGSTYYPDTVKGRFTISRDNVKNTLYLQMSRLKSEDTAMYYCARPDTSWFAYWGQGSLVTVSA
VL: DIQMTQTTSSLSASLGDRVTISCRASQDIDNYLNWYQQKPDGTVKVLISYTSRLHSGVPSRFSGSGSGTDYSLTISNLEQEDIATYFCQQGNTLPWTFGGGTKLEIKR

Source: patent US20260116991A1 (HAINAN SIMCERE ZAIMING PHARMACEUTICAL, published 2026)
